Laboratory results from the supplement of paper PMC12764529.
± gives the half width of the 95% confidence interval.

Key:
[1] = folding stability dG unfold from trypsin proteolysis; higher = more stable
Outline: (§1)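 Unfolding free energy was derived, per protease or combined, against a sequence-predicted unfolded-state K50 and a shared folded-state K50, starting from K50 inferred by Bayesian fitting of sequencing counts. Digestion with trypsin and chymotrypsin was carried out on designed mini-proteins under 80 residues without cysteine in a PA-tagged cDNA display construct. Only designs with AlphaFold2 dimer inter-PAE above 15 were kept.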

[2] = folding stability dG unfold from chymotrypsin proteolysis; higher = more stable
Outline: as §1

[3] = folding stability dG unfold (combined trypsin and chymotrypsin); higher = more stable
Outline: as §1

| Sequence | folding stability dG unfold [1] | folding stability dG unfold [2] | folding stability dG unfold [3] |
| --- | --- | --- | --- |
| SMKRVLILVPDPSVDKEELIEELKKKGFEDIEVVDSEEELKKLPENIDVVVIVRDGEVEVREVPPVEALKSA [r9_750_JUSTAS] | 0.698 ± 0.037 kcal/mol | 0.585 ± 0.1 kcal/mol | 0.706 ± 0.11 kcal/mol |
| SMKTLIVEGMTPEEIRALAEEAAKKGEEVEIEIVVKDNEEIKEALEEAGVEVEEVEDPETKEKVLKVTVKSA [r9_759_TrROS_Hall] | 0.254 ± 0.044 kcal/mol | 0.412 ± 0.072 kcal/mol | 0.327 ± 0.14 kcal/mol |
| SMKVEIPPELVEAIEKALAEKKPGEEVEIEFEHPDGPLIRVRIEKDGRVRIEVFEHPDKLIAEFEFEPKPSA [r9_132_TrMRF] | 3.31 ± 0.095 kcal/mol | 2.98 ± 0.087 kcal/mol | 3.14 ± 0.077 kcal/mol |
| SMKYRITLTITKGDEDIVVEIETESEEEAKEKFKKAISPELLKALPEDAKVEITVEPEPLVIPEPGVPLPSA [r9_111_JUSTAS] | 0.465 ± 0.038 kcal/mol | 1.22 ± 0.12 kcal/mol | 0.995 ± 0.062 kcal/mol |
| SMLEEVLERIEAMPPGSVVKVTLTFPDGTKRTETLKLSAEEVKEKLEKIKKENPDIKIEVKVEVYSTEEESA [r9_37_JUSTAS] | 3.33 ± 0.39 kcal/mol | 4.05 ± 0.36 kcal/mol | 4.39 ± 0.42 kcal/mol |
| SMLEKIEKAIESGNDGILVPLKLTPEEFKKVRAYLEELGFTLLSEEELAVGPVPVYELTFKVNTKTGEAASA [r9_498_JUSTAS] | 1.88 ± 0.066 kcal/mol | 2.44 ± 0.1 kcal/mol | 2.17 ± 0.13 kcal/mol |
| SMLNIPSDWKVITIKLEYKVEPGVSEEEVKEKAIEELKKKFPKNTKIEVEVTPDPETGTVTIKITIIIKKSA [r9_657_JUSTAS] | 2.15 ± 0.062 kcal/mol | 1.38 ± 0.056 kcal/mol | 1.84 ± 0.1 kcal/mol |
| SMMKIRIVNKETKEEIEEIEIEKNEDGSYTIKIKIKKNGKTYEIEIKLPKGMKIEELLKKLGIEKAEIEPSA [r9_492_TrROS_Hall] | 1.55 ± 0.049 kcal/mol | 1.98 ± 0.11 kcal/mol | 1.79 ± 0.11 kcal/mol |
| SMMYLVKIKVRNKETGELVEEIELVVESEEEAEKIAEELAEELGLEVEVEVKRISPEELEDPEILKELLESA [r9_864_TrROS_Hall] | 2.77 ± 0.13 kcal/mol | 3.53 ± 0.088 kcal/mol | 3.27 ± 0.23 kcal/mol |
| SMMYLVNLRVEVYKDGKLVEEKEIAIAAPVEEALKIAEAIKESHPDAEVKVEIEVYEIPEDDPEFKEAFASA [r9_782_TrMRF] | 2.25 ± 0.082 kcal/mol | 2.87 ± 0.033 kcal/mol | 2.68 ± 0.089 kcal/mol |
| SMNIISIDIEPYRTGGEPWIYIPIQVPDENMPPSELEEIVEEIFEKLGLPINVKVHRDPNSGTIWIMIRLSA [r9_717_TrROS] | 2.72 ± 0.15 kcal/mol | 2.79 ± 0.13 kcal/mol | 2.75 ± 0.27 kcal/mol |
| SMNITVTYDPETDTVTIEIDDEEIDPETLRELLDAIPPNVKRVIIHVDHPETARTVEELAKETGLPVEIASA [r9_919_TrMRF] | 3.96 ± 0.077 kcal/mol | 3.2 ± 0.13 kcal/mol | 3.97 ± 0.12 kcal/mol |
| SMPKIEVKIEYDEETGEITVEIRVPETEEEALEALRKLAEEAGLEVEVEEVEIEEVDGELVIRVKVRIKPSA [r9_164_TrROS_Hall] | 3.57 ± 0.21 kcal/mol | 2.44 ± 0.16 kcal/mol | 3.08 ± 0.28 kcal/mol |
| SMPLTPAEVAEARARAAREAAEAAAGVPVTVRVTLSTPDRELTVTLPATESLAAVMKAHPDVTVEVEVEASA [r9_513_JUSTAS] | 0.459 ± 0.043 kcal/mol | 0.0452 ± 0.11 kcal/mol | 0.284 ± 0.059 kcal/mol |
| SMPLTPEEVEEVVEAVAKELEEETGEEVKAEVFYDPETGRFYAVIELPDGRRVRIEIDPETGEVRVEVEASA [r9_9_TrMRF] | 3.8 ± 0.13 kcal/mol | 4.17 ± 0.15 kcal/mol | 4.02 ± 0.1 kcal/mol |
| SMPPDEKLIFVTRFKVKPDNPEDIEKALAAARETVRALLEELGLPEVKEVRVLRVEVHPDGYVTVVVEVGSA [r9_754_TrMRF] | 4.05 ± 0.11 kcal/mol | 4.73 ± 0.1 kcal/mol | 4.49 ± 0.08 kcal/mol |
| SMPRLVATPRPDGSVLVLLEAPPERPEEIAEEIRERLGVPLRVVRIEPVPERVGDRPRLRYRVLIEVDVRSA [r9_431_TrMRF] | 0.96 ± 0.077 kcal/mol | 0.923 ± 0.12 kcal/mol | 0.976 ± 0.095 kcal/mol |
| SMPVTITITLHKDPNSDVIPVRLEMTDSAGNPIGEREIDYTTTEEEARERAVALAEEIAAATGYTIEFGESA [r9_31_JUSTAS] | 1.27 ± 0.069 kcal/mol | 0.266 ± 0.22 kcal/mol | 0.8 ± 0.11 kcal/mol |
| SMPVTITRDFDIPLATLSVEEVKAAIEEALKAEGLNVVEPKLDEKLVKELEEAPPSSTLPVKVTVLVEPASA [r9_1163_JUSTAS] | 0.35 ± 0.074 kcal/mol | 0.715 ± 0.049 kcal/mol | 0.62 ± 0.15 kcal/mol |
| SMREIPPEDLKKAANAYLNGDKEKVEQLFKDAGFKKVVLEEVEGDGEVLFVALVEHPDGPTVLTVSSSDFSA [r9_783_TrMRF] | 0.7 ± 0.064 kcal/mol | 1.33 ± 0.1 kcal/mol | 1.04 ± 0.25 kcal/mol |
| SMRIHDSNGQSYTIMIRTPDPNVTPEKIVKAIDEAGYKVTEIQRPPEKGHVHINIRVRDRERAIEAIKELSA [r9_1154_TrROS] | 0.231 ± 0.12 kcal/mol | -0.253 ± 0.18 kcal/mol | 0.0402 ± 0.12 kcal/mol |
